This series in a line: soluble on expression in E. coli; label from the status in PepcDB or PDB records.
With “MAALRYAGLDDTDSEDELPPGWEERTTKDGWVYYANHTEEKTQWEHPKTGKRKRVAGDLPYGWEQETDENGQVFFVDHINKRTTYLDPRLAFTVDDNPTKPTTRQRYDGSTTAMEILQGRDFTGKVVLVTGANSGIGFETAKSFALHGAHVILACRNLSRASEAVSRILEEWHKAKVEAMTLDLAVLRSVQHFAEAFKAKNVSLHVLVCNAGTFALPWGLTKDGLETTFQVNHLGHFYLVQLLQDVLCRSSPARVIVVSSESHRFTDINDSSGKLDLSRLSPPRSDYWAMLAYNRSKLCNILFSNELHRRLSPRGVTSNAVHPGNMMYSAIHRNSWVYKLLFTLARPFTKSMQQGAATTVYCAVAPELEGLGGMYFNNCCRCLPSEEAQSEETARALWELSERLIQDRLGSPSS”, the “soluble on expression in E. coli” value was “soluble”.

For the sequence “MSLKQFKSIINTSQDFEKRIEKIKKEVINDPDVKQFLEAHRAELTNAMIDEDLNVLQEYKDQQKHYDGHKFADCPNFVKGHVPELYVDNNRIKIRYLQCPCKIKYDEERFEAELITSHHMQRDTLNAKLKDIYMNHRDRLDVAMAADDICTAITNGEQVKGLYLYGPFGTGKSFILGAIANQLKSKKVRSTIIYLPEFIRTLKGGFKDGSFEKKLHRVREANILMLDDIGAEEVTPWVRDEVIGPLLHYRMVHELPTFFSSNFDYSELEHHLAMTRDGEEKTKAARIIERVKSLSTPYFLSGENFRNNEGHHHHHH”, the “soluble on expression in E. coli” value is listed as “soluble”.

Turning to “MSLLSGSFLEENMKHLDTYIAFDLEFNTVNDVSHVIQGSAVKYDHHKEVDSFDTYVYTDVPLQSFINGLTGITSNKIAAAPKVEEVMAAFKNFVGELPLIGYNAQKSDLPILAENGLDLRDQYQIDLFDEAYDRRSADLNGIANLRLQTVATFLGIKGRGHNSLEDARMTAAIYESFLETDTNKAYLSQQEEVITDNPFVALGGFFDEGHHHHHH”, the “soluble on expression in E. coli” value is recorded as “not soluble”.

Take “MPKLPLLLSFPLLFFASFAYADEDFVTCYSVLKFINANDGSRLHSHDVKYGSGSGQQSVTAVKNSDDINSHWQIFPALNAKCNRGDAIKCGDKIRLKHLTTGTFLHSHHFTAPLSKQHQEVSAFGSEAESDTGDDWTVICNGDEWLESEQFKLRHAVTGSYLSLSGQQFGRPIHGQREVVGTDSITGGSAWKVAEGIYIKHQQKDL”: the “soluble on expression in E. coli” value is “soluble”.

On to “SMSDVTIVKEGWVQKRGEYIKNWRPRYFLLKTDGSFIGYKEKPQDVDLPYPLNNFSVAKCQLMKTERPKPNTFIIRCLQWTTVIERTFHVDTPEEREEWTEAIQAVADRLQRQEEERMN”, for which the “soluble on expression in E. coli” value is “soluble”.

Turning to “GMKQDSIITLHPDDRSEQTAEIMRRFNDVFQLHDPAALPELIAEECVIENTVPAPDGARHAGRQACVQLWSAIATQPGTRFDLEETFVAGDRATIRWRYWMADGNSVRGVNLMRVQDGRIVEAMGYVKG”, the “soluble on expression in E. coli” value is recorded as “soluble”.

On to “MGSDKIHHHHHHMSSHHETSENVVIKQADFIESVADALQYISYYHPKDFVDAMSEAYEREQSAAAKDAIAQILINSRMSAEGKRPLCQDTGIVTTFVKVGMGVKWDKTDMTIQQMVDEGVRRAYTNPDNPLRASIVADPAGSRKNTKDNTPSVVHIDMVPGNHVEVAIAAKGGGSENKAKMVMLNPSDDIAAWVEKTLPTMGAGWCPPGMLGIGIGGTAEKAAVLAKEALMESVDIHELMARGAQTTEEKLRLDIFERANNLGIGAQGLGGLTTVLDVKIKSAPTHAASKPVVMIPNCAATRHVHFHLDGTGPADLAPPSLSDWPEITREVGSDVRRVNLDTVTQADIEQWQSGETLLLSGKMLTGRDAAHKRIQSLIESGEGLPEGVDFTGKFIYYVGPVDPVGNEVVGPAGPTTATRMDKFTDLMLDKTGLMGMIGKAERGPATVESIKKHKAVYLMAVGGAAYLVSKAIKKSRVVAFADLGMEAIYEFDVQDMPVTVAVDSNGVNAHETGPAIWKVNIANANAKA”, for which the “soluble on expression in E. coli” value is “not soluble”.

For the sequence “MSLDLRARVREELERLKREGLYISPKVLEAPQEPVTRVEGREVVNLASNNYLGFANHPYLKEKARQYLEKWGAGSGAVRTIAGTFTYHVELEEALARFKGTESALVLQSGFTANQGVLGALLKEGDVVFSDELNHASIIDGLRLTKATRLVFRHADVAHLEELLKAHDTDGLKLIVTDGVFSMDGDIAPLDKIVPLAKKYKAVVYVDDAHGSGVLGEKGKGTVHHFGFHQDPDVVQVATLSKAWAGIGGYAAGARELKDLLINKARPFLFSTSHPPAVVGALLGALELIEKEPERVERLWENTRYFKRELARLGYDTLGSQTPITPVLFGEAPLAFEASRLLLEEGVFAVGIGFPTVPRGKARIRNIVTAAHTKEMLDKALEAYEKVGKRLGIIR”, the “soluble on expression in E. coli” value is “soluble”.

The record behind these values is the DeepSol protein solubility set.
